# Assay: yeast display, Sf9 membrane polyspecificity reagent, FACS + sequencing; frameworks hold sequencing errors
# Summary of the method: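 Nanobodies from a synthetic yeast display library (Saccharomyces cerevisiae BJ5465), induced 36–48 hours with galactose, were stained 1 hour at 4 °C with 10% biotinylated, detergent-solubilized Sf9 membrane reagent, enriched on streptavidin microbeads, then FACS-sorted. Anti-HA (expression) and streptavidin (reagent binding) fluorescence set low and high (top ~1%) gates. Polyreactivity labels come from the gate of origin. Genes were colony-PCR amplified, MiSeq 2 × 250 sequenced and filtered by CDR length.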
row,Sequence,polyreactivity (PSR sort gate)
1,QVQLVESGRGLVQAGGSLRLSCAASGRIFSIYAMGWYRQAPGKERELVAAITRGGRTNYADSVKGRFTISRDNAKNTVYLQMNSLKPEDTAVYYCAARRIDGVVKPYDYWGQGTQVTVSS,low polyreactivity
2,QVQLVESGRGLVQAGGSLRLSCAASGRIFVHYAMGWYRQAPGKERELVAAITYSGDSTYYADSVKGRFTISRDNAKNTVYLQMNSLKPEDTAVYYCNAVVRRVLFDYDYWGQGTQVTVSS,high polyreactivity
3,QVQLVESGRGLVQAGGSLRLSCAASGRSFAVYAMAWYRPAPGKVMELVAAISSGGSTYYADSVKGRFTSSRDNAKNTVYVQMNSLKPEDSSVSYCAAGWKRLSGRKHYYWGQGTQVTVSS,high polyreactivity
4,QVQLVESGRGLVQAGGSLRLSCAASGRTFPFYAMGWYRQAPGKEREFVAAITASGDSTYYADSVKGRFTISRDNAKNTVYFQMHSLKPEDTAVYYCAADLPVWYVTRYDYWGQATQVTVSS,low polyreactivity
5,QVQLVESGRGLVQAGGSLRLSCAASGRTFRGNAMGWYREAPGKERELVAAIRYRGGSTYYADSVKGRFTISRDNAKNTVYLQMNSLKPEDTAVYYCARRYTVHTQHYDYWGQGTQVNVSS,high polyreactivity
6,QVQLVESGRGLVQAGGSLRLSCAASGRTFWIYAMGWYRQAPGKERELVAAISRGGSTYADSVKGRFTISRDNAKNTVYLQMNSLKPEDTAVYYCAASTPQYQYYYWGQGTQVTVSS,high polyreactivity
7,QVQLVESGRGLVQAGGSLRLSCAASGRTFWTYTMGCYRQAPWKEREFVAAITFGDGSTSYADYVKGRFTISRDNAKNTVFLQMNSLKQEDTAVYYCAKRWRRRFVDVWSLYDYWGHGTQVTVSS,low polyreactivity
8,QVQLVESGRGLVQAGGSLRLSCAASGRTFYSNTMGWSRQAPGKERELVAVISNGGSTYYADSVKGRFTISRDNAKYTVYLQMNSLKPEETAVYYCAARSRDRYRGNYWGQGTQVTVSS,high polyreactivity
9,QVQLVESGRGLVQAGGSLRLSCAASGRTFYYYAMGWYRQAPGKERELVAAISRSGTRTYYADSVKGRFTISRDNAKNTVYLQMNSLKPEDTAVYYCAAVGAAGQDNYWGQGTQVTVSS,high polyreactivity
10,QVQLVESGRGLVQAGGSLRLSCAASGSIFGRNAMGWYRQAPGKERELVAAITWRGGRTYYADSVKGRFTISRDNAKNTVYLQMNSLKPEDTAVYYCAAVVAYQYTGYRFDYWGQGTQVTVSS,high polyreactivity
11,QVQLVESGRGLVQAGGSLRLSCAASGSIFYYLAKGWYRQAPGKERELVAVIDFSGASTSYADSVKGRFTISRDNAKNTVYLQMNSLKPEDTAVYYCAADRFRRKVRVDYWGQGTQVTVSS,low polyreactivity
12,QVQLVESGRGLVQAGGSLRLSCAASGSILVFYAMGWYRQAPGKERELVATITGSVGRTSYADSVKGRFTISRDNAKNTVYLQMNSLKPEDSAVYYCAADADTDVFYILQEYDYWGQGTQVTVSS,low polyreactivity
13,QVQLVESGRGLVQAGGSLRLSCAASGSTFKDYPMGWYRQAPGKESELVARISTRVGSTYYPDSVKGRFTISRDNAKNTVYLQMNRLNPEDTAVFYCNARWWYPPYYYWGQGTQVSVSS,high polyreactivity
14,QVQLVESGRGLVQAGGSLRLSCAASGSTFLDYAMGWYRQAPGKERELVAAINGSGSRTYYADSVKGRFTISRDNAKNTVYLQMNRLKPEDTAVYYCAHEYGYWGQGTQVTVSS,low polyreactivity
15,QVQLVESGRGLVQAGGSLRLSCAPSGSTIQDYAMGWYRQAPGKERELVAAISWRSDITYYAESVKGRFTISRDNAKNTVYLQMNSLKPEDTAVYYCAADNSYHWLDREFDYEFDYWGQGTQVTVSS,high polyreactivity
16,QVQLVESGRGLVQAGGSLRLSCASSGFTLSPNAMRWYRPAPGKEREFVAAISQRGGSTYYADSVKGRFTISRDNAKNTVYLQMNSLKPEDTAVYYCARDTKYKYDFWGQGTQVTVSS,low polyreactivity
17,QVQLVESGRGLVQAGGSLRLSSAASGRIFPTNAMGWYRQAPGKERELVASIDSGDITHYADSVKGRFTISRDNAMNTVYLQMISLKPEDTAVYYCAKRPQAQYTYITGDDYWGQGTQVTVSS,low polyreactivity
18,QVQLVESGRGLVQAGGSLRLTCAASGRIFYLNAMGGYRQAPGKERELVAGITNSTTGTYYADSVKGRFTIARDNAKNTVYLQMNSLKPVDTAVYYCNTDVAYEEPVETYDYWGQGTQVTVSS,low polyreactivity
19,QVQLVESGRGLVQAGGSLRLTCAASGSTFTANDMGGSRPATGTERELFADISSGDGTNYADSVKGRFTISRDNAKNTVYLQMISLKPEDTAVYYCAKDVYNFRTTHSYFTGYDSWGHGTQVTVSS,low polyreactivity
20,QVQLVESGRGLVQAGGSLSLSCAASGRIFYYYVMGWYRQAPGKERELVAVIDWSGGSTYYADSVKGRFTISRVNAKNTVYLQMNSLKPEDTAVYYCAKVGLNFSLAYEDYDYWGQGTQVTVSS,low polyreactivity
21,QVQLVESGRGLVQAGGSRRLSCAASGSIITWNAMARYRQAPGKERELFAAIDWDGGSTYYADSVKGRFTISRDNAKNTVYFQMNSLKPEDTAVYYCAATYGWYTGRYPSGHYYYWGQGTQVTVSS,low polyreactivity
22,QVQLVESGRGLVQAGGTLRLSCAASGRIFYWNAMGWYRQAHGKERELVAAISWSGGSTYYADSVKGRFTISRDNAKNTVYLQMNSLKPEDTAVYYCAADGGRRTYYVKYDYWGQGTQVTVSS,low polyreactivity

row,Sequence,polyreactivity (PSR sort gate)
1,QVQLVESGRGLVQAGGTLRLSCAASGSIFGYYAMGWYRQAPGKERELVASISGSGGTTYYADSVKGRFTISRDNAKNTVYLQMNSLNPEDTAVYYCAARRSIYGYPFVTSRRGYWGQGTQVTVSS,high polyreactivity
2,QVQLVESGRGLVQAGVSLRLSCASSGSTFTLNVMGWYRKAPVKERELVAGFSKRGGNTYYADSVKGRFTISRDYAKNTVYLQMNRLKPEDTAVYFCAKRQGVGYGYYYLGQGTQVTVSS,high polyreactivity
3,QVQLVESGRGLVRAGGSLRLSCAASGRTFGVYAMGWYRQAPGKERELVASIRYSGVSTYYADSVKGRFTISRDNAKNTVYLQMNSLKPEDTAVYYCAARYRSRRVDYGYDYWGQGTQVTVSS,high polyreactivity
4,QVQLVESGTGLVQAGGSLRLSCADSGITFVFYSMGSYRQAPGKESELVATISYRGTSTYYADSVKGLFTISRDNAKNSVSLQMNSLKPEDTAVYYCAADTFIYYKTGYGYWGQGTQVTVSS,low polyreactivity
5,QVQLVESGVCLVQAGGSLRLSCAASGFTYYFYTMGWYRQAPGKERELVARITARGGSTYYADSVKGRFTISRDNAKNTVYLQMNSLKPEDTAVYYCAAVTYFGWYPYRMEYWGQGTQVTVSS,high polyreactivity
6,QVQLVESGVGIVQAGGSLRLSCAASGFTFDNYVMGWYRQAPGKERELVAAISTGSRTYYADSVKGRFTISRDNAKNTVYLQMNSLKPEDTAVYYCAASYVRRSWYSNDYWGQGTQVTVSS,high polyreactivity
7,QVQLVESGVGLDQAGGSLRLSCAASGSIFRRYAMGWYRQAHGKERELVAAISSNGGSTYYADSVKGRFTISRDNAKNTVYLQMNSLKPEDTAVYYCTAPPLYRDEYWGQGTQVTVAS,high polyreactivity
8,QVQLVESGVGLDQAGGSLRLSCAASGSIIWYYAMGWYRQAPGKERELVAAITVSGGSTYYADSVKGRFTISRDNAKNTVYLEMNTLKPEDTAVYYCAALYISLSGDEYDYWGQGTQVTVSS,low polyreactivity
9,QVQLVESGVGLLQAGGSLSLSCSASGSTLYYAMGWYRQAPGKERELVASITFSTGSTYYADSVKGRFTISRDNAKNTVYLQMNSLKPEDTAVYYCATGVDTYYLTVEHDSWGQGTQVTVSS,low polyreactivity
10,QVQLVESGVGLVKAGGSLRLSCAASGITFGFYAMGWYRQAPGKDRELVASISSRGGSTNYADSVKGRFTISRDNAKNTVYLQMNSLKPEDTAVYYCAVAWLVRGGGGRRTFYSWGQGTQVTVSS,high polyreactivity
11,QVQLVESGVGLVQAAGSLRLSCAASGRIFKYYAMGWYRQAPGKERELVATISRGSRTNYADSVKGRFTISRDNAKNTVYLQMNSLKPEDTAVYYCAAQRLSASRPYGYWGQGTQVTVSS,high polyreactivity
12,QVQLVESGVGLVQAGGSHRLSSGASGSIFSSYAMGWYRQEPVKERELVADISQSGGDTYYADSVQGRFTISRDNANNTVYLQRNSLKPEDNAVYYCAASVWYYPMDYWGKGTQVTVSS,low polyreactivity
13,QVQLVESGVGLVQAGGSLLLSCAASGRIFRVYAMGWYRQAPGKERELVAAISWSGGRTYYADSVKGRFTISRDNAKNTVYLQMNSLKPEDTAVYYCAAERCGPTYYSGGDYDYWGQGTQVTVSS,high polyreactivity
14,QVQLVESGVGLVQAGGSLRISCAASGRIYRSNAMGWYRQAPGKERELLAAISSNGGSTYYADSVKGRFTISRDNAKNTVYLQMNSLKPEDTAVYYCAARVYYPVRYGYWGQGTQVSVSS,high polyreactivity
15,QVQLVESGVGLVQAGGSLRLICAASGRTFAYYAMGWYRQAPGKERELVAAISSGGRTNYADSVKGRFTISRDNAKNTVYLQMNSLKPEDTAVYYCARKASYQIYNGQYGGFGYGYWGQGTQVTVSS,high polyreactivity
16,QVQLVESGVGLVQAGGSLRLICDASGRIYSYYAIGWYRQAPGKETELVASISRSGGSTYYADSVKGRFTISRDNAKNTVYLQMNSLKPEETAVYYCAAYKYVRSYPYDYWGQGTQVTVSS,low polyreactivity
17,QVQLVESGVGLVQAGGSLRLRCAASGSIFRRYAMGWYRQAPGKERELVARITSSSGTTTYADSVKGRFTISRYNSKNNVYLQMNSLKPEDTAVYYCAAAWWHAYYGKNYYWGQGTQVTVSS,high polyreactivity
18,QVQLVESGVGLVQAGGSLRLSCAASGFIFPYYTMGWYRQAPGKERELVAAISASSGRTYYADSVKGRFTISSDNAKNTVYLQMNSLKPEDTAVYYCAAKTYEPRKYEYWGQGTQVTVSS,high polyreactivity
19,QVQLVESGVGLVQAGGSLRLSCAASGFLIRYYAMGWYRQAPGKERELVASIDWSGGNTYYADSVKGRFTSSRDKAKITVYFQMNSLKPEDTAVYSCNRRGMDWGQGTQVNVSS,low polyreactivity
20,QVQLVESGVGLVQAGGSLRLSCAASGFTFARYAMGRYRQAPGKEREFVAAISLSTTSTYYADSVKGRFTISRDYANNNVFLQMNSLKPEDTAVYYCATDIVGPHFDYWGQGTQVSVSS,low polyreactivity
21,QVQLVESGVGLVQAGGSLRLSCAASGFTFYPYAMGWYRQAPGKERELVASITNGGSTNYADSVKGRFTISRDNAKNTVYLQMNSLKPEDTAVYYCTAAYGFYASRYWYASYDYWGQGTQVTVSS,low polyreactivity

# Source: the nanobody polyreactivity screen of Harvey et al. (2022)
